Holding throughout (assay type): functional, cell-based
The target of data set [1] is T1, Solute carrier organic anion transporter family member 1A4 (Rattus norvegicus, UniProt O35913).
T1 sequence (O35913 whole entry): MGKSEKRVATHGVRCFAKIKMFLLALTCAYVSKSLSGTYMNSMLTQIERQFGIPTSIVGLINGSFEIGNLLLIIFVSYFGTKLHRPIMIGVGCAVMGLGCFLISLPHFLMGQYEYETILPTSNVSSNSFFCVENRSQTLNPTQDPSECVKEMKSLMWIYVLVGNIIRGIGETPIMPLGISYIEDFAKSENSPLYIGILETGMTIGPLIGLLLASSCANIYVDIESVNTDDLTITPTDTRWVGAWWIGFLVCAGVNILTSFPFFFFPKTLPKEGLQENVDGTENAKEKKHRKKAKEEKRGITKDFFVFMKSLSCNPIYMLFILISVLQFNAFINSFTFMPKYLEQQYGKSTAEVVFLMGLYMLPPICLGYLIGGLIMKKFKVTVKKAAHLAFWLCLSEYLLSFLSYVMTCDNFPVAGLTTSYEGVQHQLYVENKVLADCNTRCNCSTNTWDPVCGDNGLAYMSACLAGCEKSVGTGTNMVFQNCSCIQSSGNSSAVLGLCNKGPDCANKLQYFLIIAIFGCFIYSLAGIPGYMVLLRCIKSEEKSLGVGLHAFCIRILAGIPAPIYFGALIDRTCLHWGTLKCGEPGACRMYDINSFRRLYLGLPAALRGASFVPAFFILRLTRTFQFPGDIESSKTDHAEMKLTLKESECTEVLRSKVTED
The data set is described as follows: (§1) TP_TRANSPORTER: uptake in Oatp2-expressing HeLa cells. The note with it: human.

Substrate in data set [2]: [H][C@]12CC[C@]3([H])[C@]([H])(CC[C@]4(C)C([C@H](C)CCC(=O)NCCS(=O)(=O)O)CC[C@@]34[H])[C@@]1(C)CC[C@@H](OS(=O)(=O)O)C2
The data set is described as follows: TP_TRANSPORTER: uptake in Oatp1-expressing HeLa cells.

Substrate in data set [3]: [H][C@]12CC[C@]3([H])[C@]([H])(CC[C@]4(C)C([C@H](C)CCC(=O)NCCS(=O)(=O)O)CC[C@@]34[H])[C@@]1(C)CC[C@@H](OS(=O)(=O)O)C2
The data set is described as §1.

Our source for the Activity and Km values is ChEMBL document CHEMBL2074146, “Transport of the sulfated, amidated bile acid, sulfolithocholyltaurine, into rat hepatocytes is mediated by Oatp1 and Oatp2” (Hepatology, 2002).

With `C[C@]12CC[C@@H]3c4ccc(O)cc4CC[C@H]3[C@@H]1CC[C@@H]2O[C@@H]1O[C@H](C(=O)O)[C@@H](O)[C@H](O)[C@H]1O` [ESTRADIOL 17B GLUCURONIDE], the Activity result in data set [1] was “substrate [+]”.

B1: Solute carrier organic anion transporter family member 1A1 (Rattus norvegicus) (protein)
chain: MEETEKKIATQEGRLFSKMKVFLLSLTCACLTKSLSGVYMNSMLTQIERQFDISTSVAGLINGSFEIGNLFFIVFVSYFGTKLHRPVVIGIGCVIMGLGCLLMSLPHFFMGRYEYETTISPTGNLSSNSFLCMENRTQTLKPTQDPAECVKEMKSLMWICVMVGNIIRGIGETPIVPLGISYIEDFAKSENSPLYIGILEMGKVAGPIFGLLLGSYCAQIYVDIGSVNTDDLTITPSDTRWVGAWWIGFLVCAGVNILTSIPFFFLPKALPKKGQQENVAVTKDGKVEKYGGQAREENLGITKDFLTFMKRLFCNPIYMLFILTSVLQVNGFINKFTFLPKYLEQQYGKSTAEAIFLIGVYSLPPICLGYLIGGFIMKKFKITVKKAAYLAFCLSVFEYLLFLCHFMLTCDNAAVAGLTTSYKGVQHQLHVESKVLADCNTRCSCSTNTWDPVCGDNGVAYMSACLAGCKKFVGTGTNMVFQDCSCIQSLGNSSAVLGLCKKGPECANRLQYFLILTIIISFIYSLTAIPGYMVFLRCVKSEEKSLGVGLHTFCIRVFAGIPAPVYFGALIDRTCLHWGTLKCGQRGACRMYDINSFRHIYLGLPIALRGSSYLPAFFILILMRKFQFPGDIDSSATDHTEMMLGEKESEHTDVHGSPQVENDGELKTKL
As a reminder, the Km is the substrate concentration at which the rate is half of its maximum. Consider B1, for which the Km in data set [2] is 12.6 µM.

B2: Solute carrier organic anion transporter family member 1A4 (Rattus norvegicus) (protein)
chain: MGKSEKRVATHGVRCFAKIKMFLLALTCAYVSKSLSGTYMNSMLTQIERQFGIPTSIVGLINGSFEIGNLLLIIFVSYFGTKLHRPIMIGVGCAVMGLGCFLISLPHFLMGQYEYETILPTSNVSSNSFFCVENRSQTLNPTQDPSECVKEMKSLMWIYVLVGNIIRGIGETPIMPLGISYIEDFAKSENSPLYIGILETGMTIGPLIGLLLASSCANIYVDIESVNTDDLTITPTDTRWVGAWWIGFLVCAGVNILTSFPFFFFPKTLPKEGLQENVDGTENAKEKKHRKKAKEEKRGITKDFFVFMKSLSCNPIYMLFILISVLQFNAFINSFTFMPKYLEQQYGKSTAEVVFLMGLYMLPPICLGYLIGGLIMKKFKVTVKKAAHLAFWLCLSEYLLSFLSYVMTCDNFPVAGLTTSYEGVQHQLYVENKVLADCNTRCNCSTNTWDPVCGDNGLAYMSACLAGCEKSVGTGTNMVFQNCSCIQSSGNSSAVLGLCNKGPDCANKLQYFLIIAIFGCFIYSLAGIPGYMVLLRCIKSEEKSLGVGLHAFCIRILAGIPAPIYFGALIDRTCLHWGTLKCGEPGACRMYDINSFRRLYLGLPAALRGASFVPAFFILRLTRTFQFPGDIESSKTDHAEMKLTLKESECTEVLRSKVTED
B2: the Km in data set [3] was found to be 14.6 µM.
